Laboratory results reported in paper PMC10106849.

Target: T1, RsCDF3 (Raphanus sativus, UniProt A0A6J0K2F2 1-435)
T1 sequence: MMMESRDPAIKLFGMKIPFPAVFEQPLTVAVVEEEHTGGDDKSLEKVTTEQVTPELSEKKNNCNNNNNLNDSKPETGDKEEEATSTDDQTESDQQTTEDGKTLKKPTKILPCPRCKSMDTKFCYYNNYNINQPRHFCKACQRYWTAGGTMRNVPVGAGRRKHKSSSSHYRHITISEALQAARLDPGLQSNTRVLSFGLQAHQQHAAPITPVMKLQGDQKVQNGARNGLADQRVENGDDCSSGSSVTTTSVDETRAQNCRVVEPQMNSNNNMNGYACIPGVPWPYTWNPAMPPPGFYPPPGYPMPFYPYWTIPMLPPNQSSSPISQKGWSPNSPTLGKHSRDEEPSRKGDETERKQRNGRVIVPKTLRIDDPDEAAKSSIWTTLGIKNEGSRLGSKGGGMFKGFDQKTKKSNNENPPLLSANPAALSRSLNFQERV
Assay: competition

B1: mP1 mutated probe (dsDNA)
DNA 1: AATACACATTTATAATGTCTAGTTAAACTTAC
DNA 2: GTAAGTTTAACTAGACATTATAAATGTGTATT
- binding result: no binding
